# Laboratory results published in patent publication US20130231261.
# Biological target: T1, RNase H (UniProt P0A7Y4)
# T1 sequence: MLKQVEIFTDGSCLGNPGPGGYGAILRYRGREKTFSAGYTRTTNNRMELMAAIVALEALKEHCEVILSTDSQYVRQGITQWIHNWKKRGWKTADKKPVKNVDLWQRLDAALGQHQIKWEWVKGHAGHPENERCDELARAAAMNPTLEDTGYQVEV
# Experiment: flow
Sequence,"binding (fluorescence units) (no RNA, equivalent to bead background of 44 units)","binding (fluorescence units) (bead fluorescence 4x over no-RNA control, released to 45 units on adding MgCl2)"
AAGCCAGCTGCTTCCATTGGTGGGTCGTTTTTGCTGTCACCAGCAACATTGCCTCGTCTA [EF1a capture oligo without RNA],47,–
AAGCCAGCTGCTTCCATTGGTGGGTCGTTTTTGCTGTCACCAGCAACATTGCCTCGTCTA [EF1a capture oligo:EF1a RNA hybrid],–,196
